Test results published in publication PMC7935953, “Insights on autophagosome–lysosome tethering from structural and biochemical characterization of human autophagy factor EPG5” (Communications Biology, 2021).
Where no end group is shown, it is not given here.

How the values were obtained:
GABARAP = biological target: T1, GABARAP (Homo sapiens, UniProt O95166); test: GST pull-down of hEPG5 (wild type and mutants) with GST-GABARAP bait; type: binding; details: anti-FLAG western blot, compared to wild-type hEPG5, triplicates
T1 construct: made in house; host or cells: E. coli (T7 Express)
Procedure: (§1) For GST pull-down analysis, N-terminally GST-tagged LC3 and GABARAP proteins were expressed in Escherichia coli (T7 Express) cells. The cells were induced with 1 mM isopropyl β-d-1-thiogalacpyranoside [IPTG] for 4 h at 25 °C. The cell pellets were resuspended in 25 mL buffer E (50 mM Tris pH 8.0, 150 mM NaCl, and 1 mM PMSF). Cells were then sonicated for four cycles consisting of 1 min sonication followed by 2 min cooling on ice, with duty cycle set to 50% and output control at 5. Cell lysate was then centrifuged at 20,950 × g for 40 min at 4 °C. Supernatant was incubated for 1 h at 4 °C with glutathione resin (50% slurry, GenScript) pre-equilibrated with buffer E, while gently inverting. Resin was returned to the column and washed with buffer E. Proteins were eluted with 10 mM reduced glutathione (GoldBio) in buffer F (50 mM Tris pH 8.0, 150 mM NaCl). Free glutathione was removed by dialysis in buffer F and protein concentration was measured by spectrophotometry (NanoDrop, Thermo Scientific). Glycerol was added to a final concentration of 5%, then solutions were aliquoted and stored at −70 °C.
Pulldowns were performed with a 50 µL slurry of glutathione resin (50% slurry, GenScript). The resin was equilibrated with buffer N (50 mM Tris pH 8.0, 150 mM NaCl, 5% glycerol, 0.01% Tween20, and 0.5 mM DTT) and the beads were incubated with equal amounts (200–240 µg) of purified GST, GST-LC3A/B/C, and GST-GABARAP/L1/L2 bait for 10 min at 4 °C with gentle inversion. The tubes were centrifuged at 500 × g for 2 min, followed by removal of excess bait protein in the supernatant. The resin was then incubated with equal amounts (25–30 µg) of purified His-FLAG-hEPG5, truncated hEPG5 or its corresponding mutants (W550A, W567A, W550A/W567A, F794A, or Q336R). The tubes were once again centrifuged at 500 × g for 2 min, followed by removal of the supernatant. The resin was washed with 1 mL buffer N, centrifuged at 500 × g for 2 min, followed by removal of the excess buffer with five washes. After the final wash and removal of the supernatant, 50 µL 2× SDS loading dye was added to each tube. The tubes were then heated at 65 °C for 10 min, loaded onto two 6–15% gradient SDS–PAGE gels, and stained with Coomassie Blue. For western blots, samples were transferred from a 6–15% gradient SDS–PAGE gel to a nitrocellulose membrane and blocked with Odyssey Blocking Buffer (LI-COR). Mouse anti-FLAG was used as the primary antibody (1:2000; Sigma-Aldrich) and donkey anti-mouse IRDye 680LT as the secondary antibody (1:7500; LI-COR) for visualization on a ChemiDoc Imager (Bio-Rad). Experiments were performed in triplicates.
All experiments were performed in triplicates. ITC data represents means or means ± SEM. Intensity of His-FLAG-hEPG5, GST (control), and GST-LC3/GABARAP subfamily proteins in pull-down assays was quantified using Bio-Rad Image Lab Software v6.0. Statistics were performed using Prism 7 (GraphPad).

[1] = system: GABARAP subfamily (GABARAP, GABARAPL1, and GABARAPL2); test: GST pull-down of hEPG5, average over GABARAP subfamily baits; type: binding, human
Procedure: as §1
Pulldowns were performed with a 50 µL slurry of glutathione resin (50% slurry, GenScript). […]
(§2) All experiments were performed in triplicates. […] Intensity of His-FLAG-hEPG5, GST (control), and GST-LC3/GABARAP subfamily proteins in pull-down assays was quantified using Bio-Rad Image Lab Software v6.0. […]

[2] = Differential scanning fluorimetry (thermal shift assay) of hEPG5; type: physicochemical; details: 0.4 mg/mL protein, 10× Sypro Orange, 50 mM Tris pH 8.0, 150 mM NaCl, maximum of first derivative, triplicates
Procedure: Purified wild type His-FLAG-hEPG5 and His-FLAG-hEPG5^Q336R at 0.4 mg/mL were mixed with 10× Sypro Orange dye in buffer F in a final volume of 25 µL. The fluorescence was measured using the MiniOpticon Real-Time PCR system in triplicates. Melting temperature was calculated using the maximum of the first derivative with Prism 7 (GraphPad).

LC3C = biological target: T2, LC3C (Homo sapiens, UniProt Q9BXW4); test: ITC of hEPG5 LIR peptides titrated into His-LC3C; type: binding; details: 0.6 mM peptide into 0.06 mM His-LC3C, 20 steps, 25 °C, 50 mM Tris pH 7.0, 25 mM NaCl, one-site model, triplicates
T2 construct: made in house; host or cells: E. coli (T7 Express)
Procedure: (§3) For ITC studies, N-terminally His-tagged LC3 and GABARAP proteins were expressed in E. coli (T7 Express) cells. The cells were induced with 1 mM IPTG for 4 h at 25 °C. The cell pellets were resuspended, sonicated, and centrifuged, as described above with buffer G (50 mM Tris pH 7.0, 150 mM NaCl, and 2 mM PMSF). The supernatant was incubated with HisPur^TMNi-NTA resin (Thermo Scientific) pre-equilibrated with buffer G at 4 °C for 1 h. The resin was washed five times with buffer H (50 mM Tris pH 7.0, 150 mM NaCl) and subsequently ten times with buffer H containing 30 mM imidazole. The bound proteins were eluted with buffer H containing 100 mM imidazole once, then 300 mM imidazole for four times, and 500 mM imidazole once. […]
(§4) ITC experiments of hEPG5-LIR1 peptide titrating into His-LC3/GABARAP proteins were performed using ITC200 (GE Healthcare now Malvern Panalytical), while experiments of hEPG5-LIR2 peptide titrating into His-LC3/GABARAP proteins were performed using MicroCal PEAQ-ITC (Malvern Panalytical). […] The ITC data were analyzed with one-site binding model using Origin 7.0 (OriginLab). […]
as §2

LC3B = biological target: T3, LC3B (Homo sapiens, UniProt Q9GZQ8); test: ITC of hEPG5 LIR peptides titrated into His-LC3B; type: binding; details: 0.6 mM peptide into 0.06 mM His-LC3B, 20 steps, 25 °C, 50 mM Tris pH 7.0, 25 mM NaCl, one-site model, mean of triplicates
T3 construct: made in house; host or cells: E. coli (T7 Express)
Procedure: as §3, §4, §2

T1 sequence (O95166 whole entry): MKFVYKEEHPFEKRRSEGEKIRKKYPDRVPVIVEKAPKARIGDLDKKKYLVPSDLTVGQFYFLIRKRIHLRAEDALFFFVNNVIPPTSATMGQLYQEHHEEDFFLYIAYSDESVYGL
T2 sequence (Q9BXW4 whole entry): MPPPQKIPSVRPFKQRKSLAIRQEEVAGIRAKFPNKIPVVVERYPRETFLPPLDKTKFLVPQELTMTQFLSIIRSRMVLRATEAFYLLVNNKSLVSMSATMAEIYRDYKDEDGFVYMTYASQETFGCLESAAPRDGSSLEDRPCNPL

| Substance | binding to GABARAP in GST pull-down, in words (GABARAP) | other results |
| --- | --- | --- |
| hEPG5^Δ1770–2579: hEPG5 truncation mutant which excludes the entire C-terminal region | binds GABARAP equally well compared to wild-type hEPG5 |  |
| W550A/W567A: hEPG5 double mutant of both tandem LIR motifs | completely abolished GABARAP binding |  |
| hEPG5^Δ1–548: hEPG5 truncation devoid of the region between the N-terminus and the two LIR motifs | precipitated by GABARAP at a higher level compared to wild-type hEPG5 |  |
| hEPG5: recombinant full-length human EPG5, His-FLAG tagged, expressed in a baculovirus-insect cell system |  | hEPG5 precipitated by GABARAP subfamily compared to LC3 subfamily ([1]; fluorescence-based western blotting, triplicates): 2.5 times; Average Ratio of GABARAP Family: LC3 Family ([1]; hEPG5 binding ratio, average of 3 runs): 2.51 |
| W567A: hEPG5 mutant, first aromatic residue of LIR2 replaced by alanine | mildly |  |
| hEPG5^Q336R: hEPG5 carrying the Vici syndrome mutation Gln336Arg | did not affect hEPG5’s ability to bind to GABARAP and other human ATG8 proteins | melting temperature higher than wild-type hEPG5 [2]: ~1.5 °C |
| GSGTWTLVDEG [LIR1] |  | Kd with LC3C (LC3C): bind weakly; Kd with LC3B (LC3B): bind weakly |
| hEPG5^F794A: hEPG5 mutant with mutation to the third putative LIR motif | binds GABARAP as strongly as wild-type hEPG5 |  |
| W550A: hEPG5 mutant, first aromatic residue of LIR1 replaced by alanine | severely |  |
